These results are taken from PMC10917357, “Specific protein-RNA interactions are mostly preserved in biomolecular condensates”.

For data set [1], the target named is SARS-CoV-2 nucleocapsid (N) (SARS-CoV-2, UniProt P0DTC9 1-419). Kind of data set: UV cross-linking MS (LLPS-CLIR-MS); Assay buffers largely not in the material; N protein in 20 mM sodium phosphate pH 6.0, 50 mM NaCl (fig. S7 dispersed mimic 300 mM NaCl); UV 254 nm; turbidity of N at room temperature; NMR 303 or 310 K. The following applies: protein: recombinant; tags: N-terminal His6 removed by TEV; chain copies: 2; label: 18O4-ATP post-digestion labeling; hairpin with internal loops.

The target of data set [2] is T1, PTBP1 (C250S/C251S) (Homo sapiens, UniProt P26599-1 1-531, C250S;C251S). Put plainly: UV cross-linking MS (LLPS-CLIR-MS); dispersed and condensed phases; RRM cross-links (H411, H457); Assay buffers largely not in the material; N protein in 20 mM sodium phosphate pH 6.0, 50 mM NaCl (fig. S7 dispersed mimic 300 mM NaCl); UV 254 nm; turbidity of N at room temperature; NMR 303 or 310 K. The conditions noted are these: protein: recombinant; label: 13C/15N-labeled and unlabeled 1:1; single strand.

In data set [3] the target is T1, PTBP1 (C250S/C251S). Kind of data set: UV cross-linking MS (LLPS-CLIR-MS); dispersed and condensed phases; Assay buffers largely not in the material; N protein in 20 mM sodium phosphate pH 6.0, 50 mM NaCl (fig. S7 dispersed mimic 300 mM NaCl); UV 254 nm; turbidity of N at room temperature; NMR 303 or 310 K. The following applies: protein: recombinant; label: isotope-labeled; hairpin.

The next data set deals with FUS (UniProt P35637 1-526). Put plainly: UV cross-linking MS (LLPS-CLIR-MS); 0.075 and 0.1 eq RNA, 20 uM FUS; RRM (M321, Y325) and region C-terminal to ZnF; Assay buffers largely not in the material; N protein in 20 mM sodium phosphate pH 6.0, 50 mM NaCl (fig. S7 dispersed mimic 300 mM NaCl); UV 254 nm; turbidity of N at room temperature; NMR 303 or 310 K. The conditions noted are these: protein: recombinant; tags: GB1-His6 removed by TEV; label: isotope-labeled; two hairpins.

With GGUUCACCGAGGCCACGCGGAGUACGAUCGAGUGUACAGUGAACC (structured_RNA) [s2m], the binding result in data set [1] was “binds”. Consider GGGAGAUCUCUAAAAAUCUCUAAAAAUCUCUAAAAA (ssRNA) [3xUCUCU], for which, in the data set with PTBP1 (C250S/C251S) [2], the binding result is listed as “binds”.

GGGGGACUGCGUUCGCGCUUUCCC (structured_RNA) [U1-SL4]: the binding result with PTBP1 (C250S/C251S) [3] is on record as “binds”.

B1: U1-SL34 (structured_RNA)
RNA: GGGAUCCGAUUUCCCCAAAUGUGGGAAACUCGACUGCAUAAUUUGUGGUAGUGGGGGACUGCGUUCGCGCUUUCCCCUG
For B1, in the data set with FUS, the binding result was “binds”.
